{
  "source": "patent CN114133451A",
  "about": "(HANGZHOU MEDICAL COLLEGE, dated 2022)",
  "target": "T1, 重组弓形虫毒力因子ROP18 (Toxoplasma gondii, UniProt Q2PAY2 1-554)",
  "T1 construct": "also called 弓形虫棒状体蛋白18; rhoptry protein 18; not shown: vector-derived tag of pET28a (fusion protein purified on Ni-NTA)",
  "T1 sequence (looked up)": "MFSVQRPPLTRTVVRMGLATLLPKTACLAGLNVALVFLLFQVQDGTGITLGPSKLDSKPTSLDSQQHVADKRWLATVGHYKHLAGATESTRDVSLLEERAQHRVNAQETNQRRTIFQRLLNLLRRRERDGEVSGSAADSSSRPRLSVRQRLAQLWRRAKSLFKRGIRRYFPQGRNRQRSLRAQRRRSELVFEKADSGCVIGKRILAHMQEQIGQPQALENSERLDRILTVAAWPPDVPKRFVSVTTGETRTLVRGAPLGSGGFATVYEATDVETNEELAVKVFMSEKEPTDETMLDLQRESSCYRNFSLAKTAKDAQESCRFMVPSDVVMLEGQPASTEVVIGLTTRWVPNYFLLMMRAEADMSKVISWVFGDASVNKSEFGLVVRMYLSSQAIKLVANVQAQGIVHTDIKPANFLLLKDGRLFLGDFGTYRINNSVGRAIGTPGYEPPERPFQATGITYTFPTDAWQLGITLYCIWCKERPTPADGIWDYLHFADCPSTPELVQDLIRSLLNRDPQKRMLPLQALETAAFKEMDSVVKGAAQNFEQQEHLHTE",
  "experiment": "SPR, Biacore T100, 1:1 binding fit",
  "data": [
    {"binder": "弓形虫毒力因子ROP18纳米抗体22号克隆株 (VHH, also called 毒力因子纳米抗体; pMECS-ROP18-22; not shown: tag from the pMECS vector (purified on a nickel column, detected with anti-His a)) VHH: QVQLVESGGGSVQAGGSLRLSCVASRYTYTYSTYCLGWFRQAPGKEREEIAIIDSDGGARYADSVKGRFTISRDNAKSTLYLHMNSLKPDDTAMYSCAAGRPAPSLGYKCMYNSRHKGTLVTVSS", "values": [
      {"measurement": "Kd", "result": 2.72, "unit": "nM"}
    ]}
  ]
}
